Publication PMC3834833 (Nucleic Acids Research, 2013)
Values joined by “and” are separate entries in the source; they are usually repeats but may differ in a detail not shown here. Equal values may be shown once.

What was measured:
[1] = target: translin (wild type) (Homo sapiens, UniProt Q15631 1-228); assay: SAXS; translin octamer:RNA 1:1.5; Rg 47.2 vs 48.4 A free; SAXS: 10 mM Tris-HCl pH 8.0, 100 mM NaCl, 0.1 mM EDTA, 1 mM DTT, 5% glycerol; complex incubated 20 min at 25 C, measured at 10 C; conditions: protein: recombinant; tags: N-terminal His6 (pQE-9); chain copies: 8; single strand
[2] = target: the molecule itself; assay: glycerol gradient centrifugation; 10 ml linear 20-40% (v/v) glycerol gradient, 10 mM Tris-HCl pH 8.0, 100 mM NaCl, 1 mM EDTA, 2 mM DTT; SW-41 rotor, 38 000 rpm, 24 h, 8°C; fractions by SDS-PAGE and Coomassie; S value and molecular weight by comparison with protein markers; major oligomeric state

Row | Binder | binding result [1] | stoichiometry N [2]
1 | GUGUGUGUGUGUGUGUGUGUGUGU (ssRNA) [(GU)12] | binds | –
2 | translin variant Nt-1 (I6A/F7A) (natural protein, human, UniProt Q15631 1-228, looked up, translin, human; mutant of the pQE-9 translin plasmid made by QuikChange site-directed mutagenesis; Same construct as m1 with the stated substitutions; also called N-terminal 1; source: E. coli, purified) MSVSEAAVELQGFLAAEQDIREEIRKVVQSLEQTAREILTLLQGVHQGAGFQDIPKRCLKAREHFGTVKTHLTSLKTKFPAEQYYRFHEHWRFVLQRLVFLAAFVVYLETETLVTREAVTEILGIEPDREKGFHLDVEDYLSGVLILASELSRLSVNSVTAGDYSRPLHISTFINELDSGFRLLNLKNDSLRKRYDGLKYDVKKVEEVVYDLSIRGFNKETAAACVEK | – | 4 subunits and 3.9 subunits
